Measured values as given in patent publication US20030022292A1.

Target: CEACAM1 (carcinoembryonic antigen-related cellular adhesion molecule 1) on human CD4+ T lymphocytes and Jurkat cells (human) (UniProt P13688)
Assay: cell-based or functional assay

UniProt P13688, sequence (P13688 35-526): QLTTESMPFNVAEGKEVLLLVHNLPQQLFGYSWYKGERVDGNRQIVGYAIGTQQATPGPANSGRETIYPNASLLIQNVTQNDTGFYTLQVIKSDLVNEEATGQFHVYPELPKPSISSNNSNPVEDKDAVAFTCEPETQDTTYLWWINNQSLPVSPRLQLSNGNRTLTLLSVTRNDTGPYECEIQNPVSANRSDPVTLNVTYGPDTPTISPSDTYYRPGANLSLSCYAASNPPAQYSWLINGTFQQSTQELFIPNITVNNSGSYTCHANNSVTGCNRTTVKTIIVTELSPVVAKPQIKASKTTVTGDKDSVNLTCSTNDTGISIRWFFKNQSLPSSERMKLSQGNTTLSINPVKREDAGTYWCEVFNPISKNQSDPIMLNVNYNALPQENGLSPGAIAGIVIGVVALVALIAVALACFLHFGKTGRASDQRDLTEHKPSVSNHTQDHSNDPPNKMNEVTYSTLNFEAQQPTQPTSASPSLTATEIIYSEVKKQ

Substance	reduction of IL-2-dependent CD4+ T lymphocyte proliferation at MOI=50, relative to Opa50-expressing gonococci [%]	reduction of IL-2-dependent CD4+ T lymphocyte proliferation at MOI=100, relative to Opa50-expressing gonococci [%]	reduction of IL-2-dependent CD4+ T lymphocyte proliferation at MOI=200, relative to Opa50-expressing gonococci [%]	lowest multiplicity of infection at which inhibition of Jurkat proliferation was apparent (MOI (bacteria/cell))
Opa52 protein of Neisseria gonorrhoeae strain MS11, expressed on gonococcal strain N309 (ligand)	34	51	76	
Opa57 protein of Neisseria gonorrhoeae strain MS11, expressed on gonococcal strain N313 (ligand)				25
